Numbering of substitutions follows the chain as printed.
Assays:
[1] = biological target: T1, recombinant human GREM1 (hGREM1-His; C-terminal 10His tagged, R&D, #5190-GR) (human, UniProt O60565 25-184); experiment: BLI Octet, mAb captured, 100 nM GREM1;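 also: octet Red96 biolayer interferometry at 25 °C in pH 7.4 HEPES saline buffer, antibodies held on anti-human IgG Fc capture biosensors, then exposed to GREM1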
T1 construct: range 25-184; also called recombinant human GREM1 with a C-terminal decahistidine tag
T1 sequence: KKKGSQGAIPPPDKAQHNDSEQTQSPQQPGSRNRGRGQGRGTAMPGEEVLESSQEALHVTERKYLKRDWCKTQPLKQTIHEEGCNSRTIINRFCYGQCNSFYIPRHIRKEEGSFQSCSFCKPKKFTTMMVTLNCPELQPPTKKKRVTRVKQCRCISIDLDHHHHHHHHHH

[2] = biological target: T1, recombinant human GREM1 (hGREM1-His; …); experiment: BLI Octet, mAb captured, 100 nM GREM1 + 5 uM heparin;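 also: octet Red96 biolayer interferometry at 25 °C, antibodies captured on anti-human IgG Fc biosensors, pH 7.4 HEPES buffer with 0.1 mg/mL BSA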
[3] = biological target: T2, human GREM1 (hGREM1-His; SEQ ID NO: 595) (human, UniProt O60565 25-184); experiment: competition ELISA, biotin-hGREM1-His (100 pM) binding to coated hBMP4
T2 construct: also called biotin-hGREM1-His; recombinant human GREM1 protein
T2 sequence: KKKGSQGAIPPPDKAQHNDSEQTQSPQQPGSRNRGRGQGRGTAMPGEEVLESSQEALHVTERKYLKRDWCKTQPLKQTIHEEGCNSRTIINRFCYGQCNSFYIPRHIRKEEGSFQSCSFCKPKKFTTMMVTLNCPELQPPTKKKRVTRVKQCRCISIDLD

[4] = biological target: T1, recombinant human GREM1 (hGREM1-His; …); experiment: cell-based or functional assay
[5] = biological target: T2, human GREM1 (hGREM1-His; SEQ ID NO: 595); experiment: SPR, Biacore T200, 37 C, mAb captured, hGREM1-His injected;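 also: HBS-EP running buffer containing heparin, association and dissociation phases tracked, KD computed as koff over kon and half-life derived from koff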
[6] = biological target: T2, human GREM1 (hGREM1-His; SEQ ID NO: 595); experiment: SPR, Biacore T200, 25 C, mAb captured, hGREM1-His injected;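 also: Heparin-supplemented HBS-EP+ used as running buffer, association and dissociation phases followed, Kd computed as koff divided by kon and half-life derived from koff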
[7] = biological target: T1, recombinant human GREM1 (hGREM1-His; …); experiment: BLI Octet, mAb captured, 100 nM GREM1 without vs with 5 uM heparin;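 also: octet Red96 biolayer interferometry at 25 °C, antibodies captured on anti-human IgG Fc biosensors, association of GREM1 measured with versus without heparin in HEPES-buffered saline, pH 7.4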
[8] = biological target: T1, recombinant human GREM1 (hGREM1-His; …); experiment: cell-based or functional assay; remark: listed apart in the source

B1: H4H2784N (antibody, human IgG4, V domains shown)
VH: QVQLVESGGGVVQPGRSLRLSCAASGFTFSSYGMHWVRQAPGKGLEWVTIIWHDGSNKYYADSVKGRFTISRDNSKNTLYLQMNSVRAEDTAVYYCARDEDFFDYWGQGTLVTVSS
VL: not shown
notes: H4H prefix = human IgG4 Fc
With B1 the “Binding Signal with 30 sec Association” value [1] was 0.24 nm, the “Binding Signal with 300 sec Association” value [1] was 0.52 nm and the “Binding Signal with 30 sec Association” value [2] was 0.06 nm. The “Binding Signal with 300 sec Association” value [2] was 0.46 nm, the “% blocked at maximum Ab tested (20 nM)” value [3] was 59% and the IC50 [3] was 0.45 nM. For the same binder, the “hGREM1-His Inhibition IC50, M; W-20-17 cell differentiation assay (alkaline phosphatase)” value [4] was 24 nM, the Kd [5] was 13.8 nM and the koff [5] was 0.00197 s⁻¹. The kon [5] was 142000 M⁻¹ s⁻¹, the t1/2 [5] was 6 min and the Kd [6] was 17 nM. It also gave a koff [6] of 0.00105 s⁻¹, a kon [6] of 61800 M⁻¹ s⁻¹ and a t1/2 [6] of 11 min. For the same binder, the “Reduction in Signal from Heparin at 30 sec” value (“Reduction … at 30 sec” for short) [7] was 0.18 nm, the “Reduction in Signal from Heparin at 300 sec” value (“Reduction … at 300 sec” below) [7] was 0.06 nm and the “IC50 [M], inhibition of hGREM1-His, W-20-17/BRE-luc luciferase (100 pM hBMP4, 10 nM hGREM1-His)” value (“IC50 [M], inhibition of hGREM1-His” below) [8] was 9.5e-10 M.

B2: H4H2892N (antibody, human IgG4, V domains shown)
VH: QVQLVESGGGVVQPGRSLRLSCAASGFTFSSYGIHWVRQAPGKGLEWVAILWYDGSNKYYADSVKGRFTISRDNSKTTLYLQMNSLRAEDTAVYYCARENYNDLNFDLWGRGTLVTVSS
VL: DIQLTQSPSFLSASVGDRVTITCWASQGISSYLAWYQHKPGKAPKLLIYAASTLQSGVPSRFSGSGSGIEFTLTISSLQPEDFATYYCQQLKSYPPWTFGQGTKVEIR
notes: H4H prefix = human IgG4 Fc
With B2 the “Binding Signal with 30 sec Association” value [1] was 0.2 nm, the “Binding Signal with 300 sec Association” value [1] was 0.49 nm and the “Binding Signal with 30 sec Association” value [2] was 0.15 nm. The “Binding Signal with 300 sec Association” value [2] was 0.49 nm, the “% blocked at maximum Ab tested (20 nM)” value [3] was 82% and the IC50 [3] was 0.17 nM. The “hGREM1-His Inhibition IC50, M; W-20-17 cell differentiation assay (alkaline phosphatase)” value [4] was 4.4 nM, the Kd [5] was 2.35 nM and the koff [5] was 0.0004 s⁻¹. For the same binder, the kon [5] was 171000 M⁻¹ s⁻¹, the t1/2 [5] was 29 min and the Kd [6] was 1.22 nM. The koff [6] was 0.000173 s⁻¹, the kon [6] was 142000 M⁻¹ s⁻¹ and the t1/2 [6] was 67 min. The “Reduction … at 30 sec” value [7] was 0.05 nm, the “Reduction … at 300 sec” value [7] was 0 nm and the “IC50 [M], inhibition of hGREM1-His” value [8] was 9.5e-10 M.

B3: H4H2895N (antibody, human IgG4, V domains shown)
VH: EVQLVESGGGLVQPGGSLRLSCAASGFTVSSNYMSWVRQAPGKGLEWVSVIYSGGNTYYADSVKGRFTISRHNSKNTLYLQMNSLRAEDTAVYYCARDLGIKSDYWGQGTLVTVSS
VL: EIVLTQSPDFQSVTPKEKVTITCRASQSIGTTLHWYQQKPDQSPKLLIKYVSQSLSGVPSRFSGSGSGTDFTLTINSLEAEDAATYYCHQSSSLPWTFGQGTKVEIK
notes: H4H prefix = human IgG4 Fc
In the case of B3, the “Binding Signal with 30 sec Association” value [1] is reported as 0.15 nm, the “Binding Signal with 300 sec Association” value [1] is reported as 0.5 nm and the “Binding Signal with 30 sec Association” value [2] is reported as 0.22 nm. The “Binding Signal with 300 sec Association” value [2] was 0.54 nm, the “% blocked at maximum Ab tested (20 nM)” value [3] was 94% and the IC50 [3] was 0.036 nM. For the same binder, the “hGREM1-His Inhibition IC50, M; W-20-17 cell differentiation assay (alkaline phosphatase)” value [4] was 1.9 nM, the Kd [5] was 1.23 nM and the koff [5] was 0.000215 s⁻¹. It also gave a kon [5] of 175000 M⁻¹ s⁻¹, a t1/2 [5] of 54 min and a Kd [6] of 0.778 nM. It also gave a koff [6] of 0.000132 s⁻¹, a kon [6] of 170000 M⁻¹ s⁻¹ and a t1/2 [6] of 88 min. For the same binder, the “Reduction … at 30 sec” value [7] was -0.07 nm, the “Reduction … at 300 sec” value [7] was -0.04 nm and the “IC50 [M], inhibition of hGREM1-His” value [8] was 5.8e-10 M.

B4: H4H2889N (antibody, human IgG4, V domains shown)
VH: QVQLQESGPGLVKPSETLSLTCTVSGGSISNSYWSWIRQPPGKGLEWIGYIYYSGNTNYNPSLKSRVTISVDTSKNQFSLKLSSVTAADTAVYYCARVNDYSNYDSYYYGMDVWGQGTTVTVSS
VL: AIQMTQSPSSLSASVGDRVTITCRASQGIRNDLGWYQQKPGKAPKLLIYAASSLQSGVPSRFSGSGSGTDFTLTISSLQPEDFATYYCLQDYNYPPTFGQGTKVDIK
notes: H4H prefix = human IgG4 Fc
For B4, the “Binding Signal with 30 sec Association” value [1] was 0.2 nm, the “Binding Signal with 300 sec Association” value [1] was 0.46 nm and the “Binding Signal with 30 sec Association” value [2] was 0.05 nm. For the same binder, the “Binding Signal with 300 sec Association” value [2] was 0.44 nm, the “% blocked at maximum Ab tested (20 nM)” value [3] was 86% and the IC50 [3] was under 0.025 nM. The “hGREM1-His Inhibition IC50, M; W-20-17 cell differentiation assay (alkaline phosphatase)” value [4] was 5.4 nM, the Kd [5] was 4.06 nM and the koff [5] was 0.000422 s⁻¹. The kon [5] was 104000 M⁻¹ s⁻¹, the t1/2 [5] was 27 min and the Kd [6] was 1.89 nM. The koff [6] was 0.000118 s⁻¹, the kon [6] was 62700 M⁻¹ s⁻¹ and the t1/2 [6] was 98 min. For the same binder, the “Reduction … at 30 sec” value [7] was 0.15 nm, the “Reduction … at 300 sec” value [7] was 0.02 nm and the “IC50 [M], inhibition of hGREM1-His” value [8] was 1.2e-09 M.

B5: H4H6269P (antibody, human IgG4, V domains shown)
VH: QVQLQESGPGLVKPSQTLSLTCTVSGGSISSGGYYWTWIRQHPGKGLEWIGYIYYSGSTYYNPSLKSRVTMSVDTSKNQFSLKLSSVTAADTAVYYCARLLDFDYWGQGTLVTVSS
VL: B4 VL with T69R, T85S, Y92H, P96L, Q100G, D105E
notes: H4H prefix = human IgG4 Fc
In the case of B5, the “Binding Signal with 30 sec Association” value [1] is reported as 0.15 nm, the “Binding Signal with 300 sec Association” value [1] is reported as 0.6 nm and the “Binding Signal with 30 sec Association” value [2] is reported as 0.14 nm. For the same binder, the “Binding Signal with 300 sec Association” value [2] was 0.52 nm, the “% blocked at maximum Ab tested (20 nM)” value [3] was 73% and the IC50 [3] was 0.026 nM. The Kd [5] was 1.98 nM, the koff [5] was 0.000254 s⁻¹ and the kon [5] was 128000 M⁻¹ s⁻¹. For the same binder, the t1/2 [5] was 46 min, the Kd [6] was 0.625 nM and the koff [6] was 6.32e-05 s⁻¹. For the same binder, the kon [6] was 101000 M⁻¹ s⁻¹, the t1/2 [6] was 183 min and the “Reduction … at 30 sec” value [7] was 0.01 nm. The “Reduction … at 300 sec” value [7] was 0.08 nm.

B6: H4H2780N (antibody, human IgG4, V domains shown)
VH: EVQLVESGGGLVKPGGSLRLSCAASGFTFSTYSMNWVRQAPGKGLEWVSSISSGSSYIYYTDSVKGRFTISRDNAKNSLYLQMNSLRAEDTAVYYCARFGSYYYFGFDVWGQGTTVTVSS
VL: DIQMTQSPSSLSASVGDRVTITCRASQGISNYLAWYQQKPGKVPKLLIFSASTLQSGVPSRFSGSGSGPDFTLTVSSLQPEDVATYYCQKYNSAPFAFGPGTKVDIK
notes: H4H prefix = human IgG4 Fc
For B6, the “Binding Signal with 30 sec Association” value [1] was 0.13 nm, the “Binding Signal with 300 sec Association” value [1] was 0.58 nm and the “Binding Signal with 30 sec Association” value [2] was 0.13 nm. The “Binding Signal with 300 sec Association” value [2] was 0.58 nm, the “% blocked at maximum Ab tested (20 nM)” value [3] was 69% and the IC50 [3] was 0.1 nM. For the same binder, the Kd [5] was 28 nM, the koff [5] was 0.00161 s⁻¹ and the kon [5] was 57400 M⁻¹ s⁻¹. It also gave a t1/2 [5] of 7 min, a Kd [6] of 12.4 nM and a koff [6] of 0.00088 s⁻¹. The kon [6] was 71200 M⁻¹ s⁻¹, the t1/2 [6] was 13 min and the “Reduction … at 30 sec” value [7] was 0 nm. The “Reduction … at 300 sec” value [7] was 0 nm.

B7: H2bM2783N (antibody, mouse IgG2, V domains shown)
VH: EVQLLESGGGLVQPGGSLRLSCAASGFTFSSYVMNWVRQAPGKGLEWVSAISGSGGSTYYADSVKGRSTISRDNSKNTLYLQMNSLRAEDTAIYYCAKGDIAAIVFDAFDIWGQGTVVTVSS
VL: DIQMTQSPSSLSASVGDRVTITCQASQDISSCLNWYQHKPGKAPKLLIYDASYLETGVPSRFSGSGSGTDFTFTISSLQPEDIATYYCQQYDNLPYTFGQGTKLEIK
notes: H2M prefix = mouse IgG2 Fc (here H2bM); also called H2M2783N
B7 showed a Kd [6] of 7.4 nM, a koff [6] of 0.0015 s⁻¹ and a kon [6] of 202000 M⁻¹ s⁻¹. For the same binder, the t1/2 [6] was 7.7 min.

B8: H4H2783N2 (antibody, human IgG4, V domains shown)
VH: B7 VH
VL: B7 VL with C32A
notes: H4H prefix = human IgG4 Fc
B8 was tested, and the “Binding Signal with 30 sec Association” value [1] was 0.29 nm, the “Binding Signal with 300 sec Association” value [1] was 0.47 nm and the “Binding Signal with 30 sec Association” value [2] was 0.01 nm. For the same binder, the “Binding Signal with 300 sec Association” value [2] was 0.29 nm, the “% blocked at maximum Ab tested (20 nM)” value [3] was 76% and the IC50 [3] was under 0.025 nM. For the same binder, the “hGREM1-His Inhibition IC50, M; W-20-17 cell differentiation assay (alkaline phosphatase)” value [4] was 5.6 nM, the Kd [5] was 61.1 nM and the koff [5] was 0.000849 s⁻¹. The kon [5] was 13900 M⁻¹ s⁻¹, the t1/2 [5] was 14 min and the Kd [6] was 15.7 nM. It also gave a koff [6] of 0.000476 s⁻¹, a kon [6] of 30400 M⁻¹ s⁻¹ and a t1/2 [6] of 24 min. The “Reduction … at 30 sec” value [7] was 0.28 nm, the “Reduction … at 300 sec” value [7] was 0.18 nm and the “IC50 [M], inhibition of hGREM1-His” value [8] was 1.3e-09 M.

— patent publication US20200157194A1 (Regeneron, published 2020)
